From article doi:10.1101/2023.07.17.549240 come the findings set out here.

Data set [1] addresses T1, WRKY45 (Arabidopsis thaliana, UniProt Q9S763 1-147). Nature of the data set: EMSA.
In data set [2] the target is T1, WRKY45. Nature of the data set: competition.

T1 sequence (Q9S763 whole entry): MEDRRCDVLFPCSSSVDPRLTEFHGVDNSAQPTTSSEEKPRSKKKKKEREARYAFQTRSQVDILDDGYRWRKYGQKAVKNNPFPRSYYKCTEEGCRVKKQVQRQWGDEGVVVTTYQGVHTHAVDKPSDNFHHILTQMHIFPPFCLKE

B1: PCS2 W-box1 (W1) probe (dsDNA)
DNA 1: ATTGTCAGAGTTTGACTATGGAGCAAAC
DNA 2: GTTTGCTCCATAGTCAAACTCTGACAAT
For B1, the binding result with WRKY45 [1] is “binds”.

B2: PCS1 W-box probe (dsDNA)
DNA 1: TACAATCCAAATTGACTGTAATTTGTTA
DNA 2: TAACAAATTACAGTCAATTTGGATTGTA
On to B2, for which, in the data set with WRKY45 [1], the binding result is recorded as “no binding”.

B3: PCS2 mW-box1 probe (dsDNA)
DNA 1: ATTGTCAGAGTCGCGGAATGGAGCAAAC
DNA 2: GTTTGCTCCATTCCGCGACTCTGACAAT
Turning to B3, in the data set with WRKY45 [1], the binding result is listed as “no binding”.

B4: PCS2 W-box1 cold competitor (dsDNA)
DNA 1: ATTGTCAGAGTTTGACTATGGAGCAAAC
DNA 2: GTTTGCTCCATAGTCAAACTCTGACAAT
As for B4, the binding result with WRKY45 [2] was “binds”.
